These results are taken from publication PMC2927781, “Allosteric Remodelling of the Histone H3 Binding Pocket in the Pygo2 PHD Finger Triggered by Its Binding to the B9L/BCL9 Co-Factor” (Journal of Molecular Biology, 2010).

Where a chain is given by its changes, count along the chain named. In names and notes the source's numbering stands.

By Kd is commonly meant a measure of binding affinity in units of concentration.

This test has as its target T1, 15-mer H3K4me2 histone tail peptide (histone H3 tail dimethylated at lysine 4) (dimethyl-lysine at K4).
T1 construct: histone H3 N-terminal tail, 15-mer peptide, K4 dimethylated; numbers count on: the mature protein (A1 is the N-terminal residue); Surmise: residues 1-15 of the mature histone H3 (A1 to A15); also called dimethylated histone H3 tail peptide
As to the kind of experiment: ITC; H3K4me2 peptide injected (19 x 2 ul) into the protein; 25 °C; 25 mM Tris pH 8.0, 100 mM NaCl; iTC 200; one-site model. The conditions noted are these: both partners purified. In general terms: In ITC the heat of successive injections is recorded.

B1: PHD_(Pygo1)–HD1_(BCL9) complex with Pygo1 W390F (complex)
chain: VYPCGICTNEVNDDQDAILCEASCQKWFHRICTGMTETAYGLLTAEASAVFGCDTCMADKDVYVFSTEMANKAAEAVLKGQVETIVSFHI
Molecule B1 gave a Kd of 10.3 µM. That is a double-digit micromolar value.

B2: PHD_(Pygo1)–HD1_(BCL9) complex with Pygo1 I357A (complex)
chain: B1 chain with I18A, F51W
As to B2, the affinity, expressed as Kd, was 13.5 µM.
